The target in test [1] is T1, monkey HER2-His protein (Sino Biological, Cat. No. 90295-C08H) (monkey).
T1 construct: also called monkey HER2 protein
The test can be described thus: ELISA, 1 nM.

The target in test [2] is T1, monkey HER2-His protein (Sino …). The test can be described thus: ELISA, 10 nM.
Test [3] shares this target. Put plainly: ELISA, 0.00001 nM.
For test [4] the target is unchanged. Put plainly: ELISA, 0.001 nM.
For test [5] the target is unchanged. Put plainly: ELISA, 100 nM.
The target is the same in test [6]. The test can be described thus: ELISA, 0.0001 nM.
Test [7] shares this target. The test can be described thus: ELISA, 0.1 nM.
The target is the same in test [8]. The test can be described thus: ELISA, 0.01 nM.
Test [9] has as its target T2, recombinant human HER2-His protein (human, UniProt P04626 23-652, limits assumed).
T2 construct: also called human HER2 protein; not shown: His tag
Put plainly: SPR, antibody captured on Protein A chip, human HER2-His analyte, 1:1 model. On the procedure: The sample and running buffer were HBS-EP+ (10 mM HEPES, 150 mM NaCl, 3 mM EDTA, 0.05% surfactant P20) (GE Healthcare; BR-1006-69). The flow cell was set at 25° C. The sample block was set at 16° C. Both were pretreated with the running buffer. In each cycle, first, the antibody to be tested was captured using the Protein A chip, and then a single concentration of HER2 antigen protein was injected. The association and dissociation processes of the antibody with the antigen protein were recorded, and finally, the chip was regenerated using Glycine pH 1.5 (GE Healthcare; BR-1003-54). The association was determined by injecting different concentrations of recombinant human HER2-His in the solution and maintaining for 240 s, wherein the flow rate was 30 μL/min, and the protein was diluted in a 1:1 dilution ratio from 200 nM (see detailed results for actual concentrations tested) to obtain 5 concentrations in total. The dissociation phase was monitored for up to 600 s and triggered by switching from the sample solution to the running buffer. The surface was regenerated by washing with 10 mM glycine solution (pH 1.5) at a flow rate of 30 μL/min for 30 s. The difference in bulk refractive index was corrected by subtracting the responses obtained from the goat anti-human Fc surface. Blank injections were also subtracted (=double referencing). To calculate the apparent KD and other kinetic parameters, the Langmuir 1:1 model was used.

In the next test the target is T3, monkey HER2-His protein (monkey).
T3 construct: Bought protein; also called monkey HER2 protein
Put plainly: SPR, antibody captured on Protein A chip, monkey HER2-His analyte, 1:1 model.

B1: Tab050 (2C4 human IgG1, Pertuzumab) (antibody, V domains shown)
VH: EVQLVESGGGLVQPGGSLRLSCAASGFTFTDYTMDWVRQAPGKGLEWVADVNPNSGGSIYNQRFKGRFTLSVDRSKNTLYLQMNSLRAEDTAVYYCARNLGPSFYFDYWGQGTLVTVSS
VL: DIQMTQSPSSLSASVGDRVTITCKASQDVSIGVAWYQQKPGKAPKLLIYSASYRYTGVPSRFSGSGSGTDFTLTISSLQPEDFATYYCQQYYIYPYTFGQGTKVEIKR
notes: control antibody, human IgG1
On to B1, for which the OD450 in test [1] turned out to be 2.04; in [2] it was 2.15; in test [3], 0.05; in test [4] it was 0.06; in [5], 2.42; in test [6], 0.06. In [7], this molecule returned an OD450 of 1.11.

B2: Tab048 (FRP5 human IgG1) (antibody, V domains shown)
VH: QVQLQQSGPELKKPGETVKISCKASGYPFTNYGMNWVKQAPGQGLKWMGWINTSTGESTFADDFKGRFDFSLETSANTAYLQINNLKSEDMATYFCARWEVYHGYVPYWGQGTTVTVSS
VL: DIQLTQSHKFLSTSVGDRVSITCKASQDVYNAVAWYQQKPGQSPKLLIYSASSRYTGVPSRFTGSGSGPDFTFTISSVQAEDLAVYFCQQHFRTPFTFGSGTKLEIKR
notes: control antibody, human IgG1
With B2, the OD450 in [1] was found to be 2.24; in [2] it was 2.04; in test [3], 0.05; in [8], 0.52; in test [4] it was 0.11; in test [5], 2.35. The OD450 in [6] stood at 0.05; in test [7] it was 1.83.

B3: Tab048 (FRP5 human IgG1) (antibody, V domains shown)
VH: B2 VH
VL: B2 VL
notes: Control antibody in human IgG1 form
Take B3: in test [9], the Kd was 0.337 nM, the koff worked out at 7.45e-05 s⁻¹ and the on-rate (kon) was found to be 221000 M⁻¹ s⁻¹. In the test with monkey HER2-His protein, the Kd was found to be 0.617 nM, the koff came to 0.000118 s⁻¹ and the on-rate constant (kon) worked out at 191000 M⁻¹ s⁻¹.

The values are drawn from patent US20240076403A1 (SIMCERE ZAIMING PHARMACEUTICAL, published 2024).
